Source: patent publication US6194559

Tests used:
[1] = tested on: ABF1 (Arabidopsis thaliana); experiment: cell_activity; conditions: yeast lacZ; no activity without ABRE
[2] = tested on: ABF2 (Arabidopsis thaliana); experiment: cell_activity; conditions: yeast lacZ

Substance Em1a trimer reporter has an activity (fold over control) [1] of 6 and an activity (fold over background) [2] of 2.
